Biological target: wt MeCP2 MBD (Homo sapiens, UniProt P51608 90-181)
Assay: EMSA; EMSA; unlabeled oligo-dA/dT duplex (o2968/o2969) listed as binding trap; buffer, salt, pH and temperature not shown in the material
Details: protein: recombinant, tags: N-terminal FLAG-MBP-FactorXa-TEV, C-terminal 7xHis, label: 6-FAM 5' strand 1

Sequence of wt MeCP2 MBD (P51608 90-181): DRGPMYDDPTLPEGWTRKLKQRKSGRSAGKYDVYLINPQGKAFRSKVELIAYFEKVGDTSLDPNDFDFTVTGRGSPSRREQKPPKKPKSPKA

B1: hmC/mC oligo-dA/dT (EMSA) (dsDNA)
DNA 1: AAAAAAAAAAACGAAAAAAAAAAA
DNA 2: TTTTTTTTTTTCGTTTTTTTTTTT
modifications: 5hmC at C12 of strand 1 (o3115); 5mC at C12 of strand 2 (o2909)
Kd (blunt): 47.4 ± 12.4 nM

B2: mC/mC oligo-dA/dT (EMSA) (dsDNA)
DNA 1: AAAAAAAAAAACGAAAAAAAAAAA
DNA 2: TTTTTTTTTTTCGTTTTTTTTTTT
modifications: 5mC at C12 of strand 1 (o2967); 5mC at C12 of strand 2 (o2909)
Kd (blunt): 3.9 ± 0.636 nM

B3: hmC/C oligo-dA/dT (EMSA) (dsDNA)
DNA 1: AAAAAAAAAAACGAAAAAAAAAAA
DNA 2: TTTTTTTTTTTCGTTTTTTTTTTT
modifications: 5hmC at C12 of strand 1 (o3115); strand 2 unmodified (o2904)
Kd (blunt): 211 ± 19.5 nM

B4: C/mC oligo-dA/dT (EMSA) (dsDNA)
DNA 1: AAAAAAAAAAACGAAAAAAAAAAA
DNA 2: TTTTTTTTTTTCGTTTTTTTTTTT
modifications: 5mC at C12 of strand 1 (o2967); strand 2 unmodified (o2904)
Kd (blunt): 43.8 ± 3.64 nM

B5: hmC/hmC oligo-dA/dT (EMSA) (dsDNA)
DNA 1: AAAAAAAAAAACGAAAAAAAAAAA
DNA 2: TTTTTTTTTTTCGTTTTTTTTTTT
modifications: 5hmC at C12 of strand 1 (o3115); 5hmC at C12 of strand 2 (o3112)
Kd: 198 ± 39.1 nM

Source: publication PMC8874921, “Evolved DNA Duplex Readers for Strand-Asymmetrically Modified 5-Hydroxymethylcytosine/5-Methylcytosine CpG Dyads”
